Measured values as given in patent US10709769B2, “Use of endostatin peptides for the treatment of fibrosis” (University of Pittsburgh—Of the Commonwealth System of …, priority 2009, dated 2020).

B1: full-length recombinant human endostatin (protein, UniProt P39060 1572-1754, looked up)
Endostatin: HSHRDFQPVLHLVALNSPLSGGMRGIRGADFQCFQQARAVGLAGTFRAFLSSRLQDLYSIVRRADRAAVPIVNLKDELLFPSWEALFSGSEGPLKPGARIFSFDGKDVLRHPTWPQKSVWHGSDPNGRRLTESYCETWRTEAPSATGQASSLLGGRLLGQSAASCHHAYIVLCIENSFMTASK
modifications: Endostatin
notes: full-length recombinant human endostatin purchased from Sigma-Aldrich
B2: ENDSTAR: recombinant human endostatin purified from E. coli containing an additional nine-amino acid sequence, his-tagged; approved for non-small-cell lung cancer in China (protein, UniProt P39060 1572-1754, looked up)
Endostatin: B1 Endostatin
modifications: Endostatin additional nine-residue His tag
notes: approved for non-small-cell lung cancer in China

Legend:
[1] = tested on: mouse skin; assay: TGF-β-induced dermal fibrosis in vivo in mouse skin; details: mice, intradermal, 10 μg/ml with TGF-β 10 ng/ml, one week post-injection
Protocol: FIG. 9. E4 reverses TGF β-induced dermal fibrosis even if administered 3 days following TGF-β.
CB57BL6/J male mice were purchased from The Jackson Laboratory (Bar Harbor, Me.). Human rE (10 μg/ml) or Endostatin peptides (10 μg/ml) in combination with TGF-β (10 ng/ml), or TGF-β alone were injected intradermally on the back of mice in a total volume of 100 μl 1×PBS. Mice were injected in two different skin sites and sacrificed one week post-injection. Skin surrounding the injection site was harvested and fixed in 10% formalin prior to embedding in paraffin.
(§1) Six μm sections of paraffin-embedded human and mouse skin tissues were stained with hematoxylin and eosin (H&E). In some experiments, sections were stained with Masson trichrome which identifies collagens. Images were taken on a Nikon Eclipse 800 microscope. The thickness of the dermis was measured in 6 random fields of each section using the image/J® software. Data are shown in arbitrary units.
E4, a peptide representing the carboxy terminus of human endostatin, can attenuate fibrosis triggered by multiple fibrogenic factors. The anti-fibrotic effects of E4 can be detected whether administered concomitantly with or following the fibrogenic trigger. The efficacy of E4 was confirmed in […] pre-clinical models of fibrosis: a) bleomycin-induced dermal fibrosis in vivo in mouse skin, b) TGF-β induced dermal fibrosis in mouse skin, and c) bleomycin-induced pulmonary fibrosis. E4 peptide or a control peptide (E1; representing the amino terminal region of endostatin) were administered at the same time as TGF-β or bleomycin or 3-4 days following TGF-β or bleomycin. Mice were sacrificed one and two weeks after TGF-β-initiation of dermal fibrosis, and two and three weeks after bleomycin-induced pulmonary fibrosis. Two different modes of administration of the E4 peptide were also tested. It was confirmed that intraperitoneal and intratracheal administration was effective. The amount of E4 that was administered ws 10 μg/ml in a total volume of 100 μl for skin and IP injections and 50 μl for IT administration.

[2] = tested on: human primary lung fibroblasts; assay: FN and Col1α1 western blot in TGF-β-treated primary lung fibroblasts; assay type: cell-based; details: normal human lung fibroblasts; TGF-β 10 ng/ml 24 h, then 5 μg/ml rE or peptide 48 h; vs TGF-β alone
Protocol: (§2) Human primary lung and skin fibroblasts were cultured. The explanted lungs of normal organ donors, patients with SSc or IPF, and clinically involved skin of SSc patients, a morphea patient and healthy donors were used for primary fibroblast culture. Approximately 2-cm pieces of peripheral lung and skin were minced and fibroblasts were cultured in Dulbecco's modified Eagle's medium (DMEM; Mediatech, Herndon, Va.) supplemented with 10% FBS, penicillin, streptomycin, and anti-mycotic agent, as previously described (Feghali et al., Arthritis Rheum 1999; 42:1451-7). All the cells were used between passages 3-6.
Cellular lysates were obtained from cultured fibroblasts as previously described (Pilewski et al., Am J Pathol 2005; 166:399-407). Briefly, 2.0×10^5 primary fibroblasts were cultured in 35-mm wells in 0.5% FBS-containing medium supplemented with 10 ng/ml of human recombinant TGF-β or PBS as vehicle control for 24 h, following which 5 μg/ml of human rE, endostatin peptides (E1-E4), or DMSO (vehicle) was added for 48 h. In some experiments, endostatin peptides were used without TGF-β stimulation. Cellular lysates were analyzed by western blot. Signals were detected following incubation with horseradish peroxidase-conjugated secondary antibody and chemiluminescence (Perkin Elmer Life Sciences, Inc., Boston, Mass.). The intensity of individual bands with expected molecular sizes was semi-quantitatively analyzed using the image/J® software available at on the internet (/rsb.info.nih.gov/ij/index.html), and normalized to individual GAPDH intensity.
To evaluate whether endostatin modulates production of ECM components in fibroblasts, FN and Col1α1 expression was examined in normal human lung fibroblasts by western blot analysis. Cells were treated with 5 µg/ml rE for 48 h with or without pre-stimulation with human TGF-β for 24 h. […] To define the functional domain of endostatin that mediates its inhibitory effect, four different peptides were synthesized corresponding to different regions of endostatin (Table 1).

[3] = tested on: human skin explants; assay: Ex vivo human skin fibrosis organ culture, dermal thickness; assay type: cell-based; details: for dermal thickness, baseline effect: injected alone without TGF-β, rE 1, 5, 10 μg/ml, peptides 10 μg/ml
Protocol: Human abdominal skin was obtained from corrective plastic surgery. As previously described (Yasuoka et al., The Open Rheumatol J 2008; 2:17-22), subcutaneous fat tissue was removed uniformly and skin tissue was cut into 1.5 cm×1.5 cm sections. The following were injected intradermally in a total volume of 100 μl 1×PBS: rE alone (1-10 μg/ml), endostatin peptides alone (10 μg/ml), rE or endostatin peptides (1-20 μg/ml) in combination with TGF-β (10 ng/ml), and TGF-β alone (10 ng/ml). In some experiments, human skin was first injected with TGF-β for 48 h followed by recombinant endostain (rE) administration in the same injection site as TGF-β. Explants containing complete epidermal and dermal layers were cultured in an air liquid interface with the epidermal and keratin layers side up and exposed to air. The culture medium was replaced every other day. After 1 or 2 weeks, skin tissue corresponding to an area with 8-mm diameter centered around the injection site was harvested using disposable 8-mm Acu Punch® (Acuderm inc., Lauderdale, Fla.). Skin tissue was fixed in 10% formalin prior to embedding in paraffin.
as §1

[4] = tested on: human primary skin fibroblasts; assay: TGF-β-induced ECM production in primary skin (dermal) fibroblasts, western blot; assay type: cell-based; details: dermal fibroblasts from healthy controls, SSc or morphea patients
Protocol: as §2
Cellular lysates were obtained from cultured fibroblasts as previously described (Pilewski et al., Am J Pathol 2005; 166:399-407). […] Cellular lysates were analyzed by western blot. Signals were detected following incubation with horseradish peroxidase-conjugated secondary antibody and chemiluminescence (Perkin Elmer Life Sciences, Inc., Boston, Mass.). The intensity of individual bands with expected molecular sizes was semi-quantitatively analyzed using the image/J® software available at on the internet (/rsb.info.nih.gov/ij/index.html), and normalized to individual GAPDH intensity. […]

[5] = tested on: Human umbilical vein endothelial cells (HUVECs); assay: Tubular formation assay in Matrigel; assay type: cell-based; details: 50 nM, 24 hours
Protocol: The ability of endostatin peptide to inhibit angiogenesis was examined in tubular formation assay using Matrigel® culture. Human umbilical vein endothelial cells (HUVECs) were maintained in endothelial cell basal medium-2 (EBM-2; Clonetics, San Diego, Calif.) supplemented with EBM-2 MV SingleQuots®. HUVECs (5×10^4) were cultured in duplicate on 24-well Matrigel® plates (BD Biosciences, San Diego, Calif.) alone, or in the presence of rE or E4 peptide (50 nM) in EBM-2 at 37° C. DMSO was used as vehicle control. After 24 hours, images were captured using a […] microscope. The degree of cord formation was quantified by measuring the area occupied by tubes in 6 random fields per well. Three independent experiments were performed.

[6] = cited from earlier work

Molecule	TGF-β-induced dermal fibrosis (dermal thickness) [1]	FN and Col1α1 levels/production [2]	dermal thickness, baseline effect [3]	other results
H-^1HSHRDFQPVLHLVALNSPLSGGMRGIRGADFQCFQQARAVGLAGT^45-OH (H-HSHRDFQPVLHLVALNSPLSGGMRGIRGADFQCFQQARAVGLAGT-OH; UniProt P39060 1572-1616, looked up, fragment) [E1, human endostatin fragment, amino acids 1-45; amino terminal control peptide]	did not alter	had no effect		
H-^71IVNLKDELLFPSWEALFSGSEGPLKPGARIFSFDGKDVLRHPTWP^115-OH (H-IVNLKDELLFPSWEALFSGSEGPLKPGARIFSFDGKDVLRHPTWP-OH; UniProt P39060 1642-1686, looked up, fragment) [E2, human endostatin fragment, amino acids 71-115]	significantly reduced			
H-^133SYCETWRTEAPSATGQASSLLGGRLLGQSAASCHHAYIVLCIENSFMT^180-OH (H-SYCETWRTEAPSATGQASSLLGGRLLGQSAASCHHAYIVLCIENSFMT-OH; cysteine pairing not given here; UniProt P39060 1704-1751, looked up, fragment) [E3, human endostatin fragment, amino acids 133-180]	prevented		tendency towards reduction	development of fibrosis as measured by dermal thickness ([3]; peptides 10 μg/ml with TGF-β 10 ng/ml, vs TGF-β alone): significantly abolished
B1		dramatically reduced	tendency towards reduction	TGF-β-induced ECM production (FN, Col1α1) [4]: reduced; inhibition of tubular structure formation [5]: significant; TGF-β-induced dermal fibrosis, delayed treatment ([3]; injected 2 days after TGF-β administration): significantly ameliorated; dermal thickness ([3]; rE 1, 5, 10 μg/ml injected simultaneously with TGF-β 10 ng/ml, one week, dose-dependent): significantly reduced
B2				half-life [6]: short
